For 1 substance, Maximum (OD450 nm) and Inhibition rate (%), Factor-VII-Human Chromogenic-Activity blood coagulation pathway assay (FVIIa, MDA-MB-231 cells, FX; antibody 20 µg/mL) results are on record in patent publication EP4703388A1.

Assay [1] addresses HuRatTF, human-rat hybrid TF antigen (human-rat hybrid). Description: ELISA, HuRatTF coated, antibody titrated. (An ELISA detects its analyte on a solid surface through an enzyme-linked reagent.)
Assay [2] addresses human tissue factor (TF) on MDA-MB-231, NCI-H358 and HCT116 cells (human) (UniProt P13726). The experiment in a line: cell-based or functional assay.

Sequence of human tissue factor (TF) on MDA-MB-231, NCI-H358 and HCT116 cells (human) (P13726 33-295): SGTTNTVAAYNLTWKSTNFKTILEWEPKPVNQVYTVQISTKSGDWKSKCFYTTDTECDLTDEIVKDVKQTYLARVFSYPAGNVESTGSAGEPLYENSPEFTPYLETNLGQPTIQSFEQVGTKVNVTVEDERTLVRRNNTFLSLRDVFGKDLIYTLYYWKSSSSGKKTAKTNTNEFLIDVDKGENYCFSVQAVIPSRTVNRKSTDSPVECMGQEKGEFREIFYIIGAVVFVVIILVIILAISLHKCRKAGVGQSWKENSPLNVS
Sequence of HuRatTF, human-rat hybrid TF antigen (human-rat hybrid) (chain, as listed by the source limits assumed): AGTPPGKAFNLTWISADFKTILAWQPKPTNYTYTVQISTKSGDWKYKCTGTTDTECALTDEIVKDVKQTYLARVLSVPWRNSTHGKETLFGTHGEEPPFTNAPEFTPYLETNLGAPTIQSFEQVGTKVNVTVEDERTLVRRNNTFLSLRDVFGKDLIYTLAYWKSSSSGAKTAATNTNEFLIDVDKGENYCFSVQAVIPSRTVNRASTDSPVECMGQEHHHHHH

In assay [1], “TF011 (monoclonal antibody sequence of tisotumab vedotin)” registered a Maximum (OD450 nm) of 0.0585 OD450 nm. Also, the Inhibition rate (%), Factor-VII-Human Chromogenic-Activity blood coagulation pathway assay (FVIIa, MDA-MB-231 cells, FX; antibody 20 µg/mL) in assay [2] turned out to be 92.8%.
